What is called stoichiometry N is a count of units in the complex or per binding partner.

Among the data in paper PMC10556141 are stoichiometry N values, retold here.

For the assay, the target named is T1, S. cerevisiae Rad51 (S. cerevisiae), P25454.
T1 chain: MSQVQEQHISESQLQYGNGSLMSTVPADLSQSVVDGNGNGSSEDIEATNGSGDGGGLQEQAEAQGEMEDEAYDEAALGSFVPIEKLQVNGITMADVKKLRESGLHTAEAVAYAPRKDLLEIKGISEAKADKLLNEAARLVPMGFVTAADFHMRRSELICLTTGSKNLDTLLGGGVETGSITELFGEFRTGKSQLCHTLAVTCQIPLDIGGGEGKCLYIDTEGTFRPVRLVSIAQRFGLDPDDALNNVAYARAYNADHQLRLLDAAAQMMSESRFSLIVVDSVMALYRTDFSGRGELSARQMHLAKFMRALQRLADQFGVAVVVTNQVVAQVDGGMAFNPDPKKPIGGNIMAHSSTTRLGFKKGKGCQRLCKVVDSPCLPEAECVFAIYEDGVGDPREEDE
The assay can be described thus: mass photometry; TwoMP instrument; protein diluted to about 8-10 nM decamers in the well; 50 mM Tris-acetate pH 7.5, 50 mM KCl, 5 mM MgCl2. The conditions noted are these: remark: other sources report otherwise.

B1: S. cerevisiae Rad51, P25454 1-400 (natural protein)
chain: T1 chain
In turn, B1 gave a stoichiometry N of 15.
